Target: full-length talin1 purified from turkey gizzard (turkey)
Assay: electron microscopy single-particle 3D reconstruction

- stoichiometry N: 2
Substance: full-length talin1 purified from turkey gizzard

— PMC3799832
